The record followed here is patent US20200078470A1.

The target of this experiment is M6P receptor (M6PR). The experiment is described as follows: SPR (BIACORE T200), M6PR amine-coupled on CM5 chip, conjugate 200 nM to 12.5 nM, 1:1 Langmuir model. For orientation: Surface plasmon resonance follows binding to a sensor surface in real time, without labels.

In turn, “imiglucerase long-acting conjugate (from UniProt P04062 40-536; P01861 107-327)” registered an M6PR Binding Affinity (relative to imiglucerase = 100%) of 22%.
